Results as given in publication PMC8000976.

Biological target: full-length dengue virus serotype 1 (DENV1) NS1 (dengue virus serotype 1 (DENV1))
Experiment: crystal structure

**Q.** “full-length dengue virus serotype 1 (DENV1) NS1 (natural protein)” was tested. Which stoichiometry N did it give?
**A.** 2
